Experimental data as given in patent US20230265170A1.

Tests used:
Experiment in all cases: cell-based or functional assay
[1] = biological target: SARS-CoV-2 spike (S) protein of the variant printed 'BA.1' in column 9 of Table 32 (SARS-CoV-2)
[2] = biological target: synthetic SARS-CoV-2 spike 'BA.4 + all' (SARS-CoV-2 (synthetic variant))
[3] = biological target: SARS-CoV-2 Omicron BA.1 spike (S) protein (SARS-CoV-2)
[4] = biological target: SARS-CoV-2 Omicron BA.2 spike (S) protein (SARS-CoV-2)
[5] = biological target: SARS-CoV-2 Omicron BA.3 spike (S) protein (SARS-CoV-2)

Sequence of Omi-32 (antibody) (VH): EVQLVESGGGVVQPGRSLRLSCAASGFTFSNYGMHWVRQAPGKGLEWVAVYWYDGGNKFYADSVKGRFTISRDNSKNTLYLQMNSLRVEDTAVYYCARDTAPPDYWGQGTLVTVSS
Sequence of Omi-32 (antibody) (VL): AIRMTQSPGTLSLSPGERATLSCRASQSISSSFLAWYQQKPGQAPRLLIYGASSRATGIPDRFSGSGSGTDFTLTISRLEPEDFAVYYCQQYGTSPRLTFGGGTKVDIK
Sequence of Omi-29 (antibody) (VH): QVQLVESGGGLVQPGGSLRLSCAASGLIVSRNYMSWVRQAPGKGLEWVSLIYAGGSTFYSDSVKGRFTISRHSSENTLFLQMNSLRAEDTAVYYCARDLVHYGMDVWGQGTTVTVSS
Sequence of Omi-29 (antibody) (VL): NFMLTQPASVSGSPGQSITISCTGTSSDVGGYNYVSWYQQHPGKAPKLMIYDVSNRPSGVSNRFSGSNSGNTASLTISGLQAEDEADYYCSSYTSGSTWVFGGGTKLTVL
Sequence of AZD8895 (antibody) (VH): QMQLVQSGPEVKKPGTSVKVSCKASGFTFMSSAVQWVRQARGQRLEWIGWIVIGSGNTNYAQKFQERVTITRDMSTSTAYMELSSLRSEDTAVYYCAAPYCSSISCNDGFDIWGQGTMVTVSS
Sequence of AZD8895 (antibody) (VL): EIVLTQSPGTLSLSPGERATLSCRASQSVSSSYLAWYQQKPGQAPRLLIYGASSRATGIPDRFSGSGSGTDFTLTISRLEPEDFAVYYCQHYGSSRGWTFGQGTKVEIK
Sequence of Omi-42 (antibody) (VH): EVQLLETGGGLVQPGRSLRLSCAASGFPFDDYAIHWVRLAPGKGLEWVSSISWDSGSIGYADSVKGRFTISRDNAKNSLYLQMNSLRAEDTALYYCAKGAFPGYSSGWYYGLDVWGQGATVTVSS
Sequence of Omi-42 (antibody) (VL): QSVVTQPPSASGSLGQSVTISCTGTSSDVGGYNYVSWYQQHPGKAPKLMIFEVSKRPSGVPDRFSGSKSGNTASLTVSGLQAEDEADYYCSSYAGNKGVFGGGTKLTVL
Sequence of Omi-12 (antibody) (VH): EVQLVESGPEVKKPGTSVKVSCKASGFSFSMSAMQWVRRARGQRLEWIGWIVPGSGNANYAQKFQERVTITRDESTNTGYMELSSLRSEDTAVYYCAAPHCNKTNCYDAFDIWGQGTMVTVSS
Sequence of Omi-12 (antibody) (VL): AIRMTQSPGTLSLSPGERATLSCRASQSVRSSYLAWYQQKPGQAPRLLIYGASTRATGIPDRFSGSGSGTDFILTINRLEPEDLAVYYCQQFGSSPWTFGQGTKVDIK
Sequence of Omi-18 (antibody) (VH): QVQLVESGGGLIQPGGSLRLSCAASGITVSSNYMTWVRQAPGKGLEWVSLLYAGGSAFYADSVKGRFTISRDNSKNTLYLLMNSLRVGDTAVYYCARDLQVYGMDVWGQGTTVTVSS
Sequence of Omi-18 (antibody) (VL): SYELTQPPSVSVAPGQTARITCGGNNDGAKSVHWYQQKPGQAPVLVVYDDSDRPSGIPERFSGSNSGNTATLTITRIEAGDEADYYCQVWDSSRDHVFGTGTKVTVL

Substance | IC50 (pseudovirus neutralization) [1] [µg/mL] | IC50 (pseudovirus neutralization) [2] [µg/mL] | IC50, pseudoviral neutralization [3] [µg/mL] | IC50, pseudoviral neutralization [4] [µg/mL] | IC50, pseudoviral neutralization [5] [µg/mL]
ADG20 (antibody) | > 10 | > 10 |  |  | 
AZD1061 (antibody) | > 10 | > 10 |  |  | 
AZD7442 | 2.73 | > 10 | 0.232 | 0.008 | 0.065
AZD8895 (antibody) | 5.11 | > 10 |  |  | 
Ly-CoV16 (antibody) | > 10 | > 10 |  |  | 
Ly-CoV555 (antibody) | > 10 | > 10 |  |  | 
Ly-CoV1404 (antibody) | > 10 | > 10 |  |  | 
Omi-03 (antibody) | 0.014 | 0.432 |  |  | 
Omi-12 (antibody) | 0.004 | > 10 |  |  | 
Omi-18 (antibody) | 0.005 | 3.61 |  |  | 
Omi-29 (antibody) | 0.025 | > 10 |  |  | 
Omi-32 (antibody) | > 10 | > 10 |  |  | 
Omi-42 (antibody) | 0.01 | 0.008 |  |  | 
REGN10933 (antibody) | > 10 | > 10 |  |  | 
REGN10987 (antibody) | > 10 | > 10 |  |  | 
S309 (antibody) | 0.436 | 0.582 |  |  | 
